Reference: doi:10.1101/2024.04.24.590854 (bioRxiv, 2024)

Target: reconstituted XPO1:RanGTP nuclear export receptor complex (human | yeast (ScRan), UniProt O14980 1-1071; P32835 1-179, Q71L)
Assay: fluorescence polarisation

| Binder | Kd [nM] | binding result |
| --- | --- | --- |
| {5(6)‑carboxyfluorescein}-SPLDNMIRRLSLAERAQGPR-NH2 [ETV6 P214L(203-222) peptide] | 261 |  |
| {5(6)‑carboxyfluorescein}-GLEGDLLEHISLTLSVSGLGA-NH2 [POU4F3 P125L(114-134) peptide] |  | binds |
